Results published in the supplement of paper PMC10567573.

B1: SLC35F2 (parent)
chain: SFMPLVIKVTSATSVNLGILTADL
B2: RIPK4 (parent)
chain: VIDLFDEQGLSALHLAAQGRHAQT

Variants of: B1
Test: protein stability index of a GFP-peptide fusion (GPS, HEK-293T) (PSI 1-6); higher = more stable
Conditions: c terminus: a fixed tail appended
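Further: lentivirally expressed fusions sorted by FACS into six bins by GFP to DsRed ratio, PSI derived from sequencing read proportions per bin multiplied by bin number.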

Protein stability index of substitutions, site by site:
S1: N 3.55 | R 2.98 | H 2.96 | K 5.06 | W 3.82 | I 3.16 | T 3.15 | M 2.14 | C 3.77 | A 3.22 | Y 3.38 | L 3.05 | E 4.28 | G 2.77 | P 3.06 | F 3.08
P4: D 1.64 | A 2.68 | F 1.91 | M 3.13 | G 2.32 | L 2.34 | E 3.23 | C 3.66 | R 5.37 | H 3.09 | Q 4.03
F2: V 2.68 | Q 3.56 | L 2.42 | R 2.01 | A 2.38 | N 2.48 | M 2.47 | I 3.41 | S 2.92 | T 2.87 | D 2.12 | P 2.47 | K 3 | G 3.11 | H 1.71 | E 2.65 | C 2.58
M3: C 1.59 | K 2.4 | S 3.76 | Q 2.13 | T 2.79 | V 2.06 | D 2.11 | G 3.41 | L 2.73 | I 2.15 | W 4.7 | R 1.58 | N 3.15 | Y 1.96 | P 3.32

Variants of: B2
Test: as above
Conditions: c terminus: a fixed tail appended

Protein stability index, by site and new letter:
Q18: A 2.27 | H 2.18 | S 2.64 | E 3.19 | M 2.15 | I 2.51 | K 2.17 | T 2.36 | Y 2.22 | P 2.82 | D 3.42 | G 2.9 | R 3.06
I2: R 3.24 | E 4.42 | W 2.36 | A 3.92 | H 4.22 | N 3.79 | G 3.41 | S 3.88 | T 3.64 | L 2.25
H21: E 3.32 | G 2.86 | T 3.07 | N 3.06 | I 2.28 | M 2.56 | V 2.72 | Q 3.23 | L 2.66 | C 2.89
H14: E 4.04 | Y 2.09 | C 2.1 | Q 3.2 | A 2.49 | L 2.33 | T 2.95 | S 2.55 | D 3.6 | P 3.54 | G 2.6 | N 3.5 | V 2.28 | R 3.25 | I 1.88 | W 1.9
S11: R 2.03 | K 2.65 | N 2.95 | G 2.94 | T 2.63 | I 2.13 | P 2.95 | H 2.51 | A 2.79 | L 2.36 | F 2.43 | W 2.52 | V 2.12 | Y 2.31 | C 2.63
L13: V 3.06 | K 3.61 | F 2.87 | C 2.22 | D 4.04 | Y 2.53 | T 3.56
F5: R 3.64 | D 4.18 | Q 3.91 | V 3.39 | A 4.21 | H 3.9 | T 3.94 | Y 3.22 | G 3.86 | K 4.16 | N 2.98
Q8: L 1.66 | A 2.73 | T 2.65 | P 3.22 | I 1.46 | D 3.07 | M 2.08 | E 2.98 | N 2.86 | G 3.12
Q23: C 2.59 | E 3.48 | Y 2.06 | S 2.6 | L 2.52 | H 2.49 | D 3.69 | P 2.66 | F 1.76 | T 2.72 | I 2.16 | G 2.8 | R 3.49 | M 1.84
L4: Q 3.98 | Y 3.52 | W 2.85 | K 3.92 | F 2.66 | E 4.29 | V 3.26 | N 3.12 | A 3.72 | P 3.73 | S 3.94 | G 3.89 | T 3.79
E7: Q 2.35 | H 2.17 | Y 1.48 | M 1.1 | A 2.23 | K 1.86 | T 2.45 | F 1.68 | N 2.36 | P 2 | L 1.92 | C 1.73
D3: P 2.81 | V 1.58 | S 2.69 | T 2.17 | H 1.68 | I 2.71 | Q 2.46 | A 1.79
G19: C 2.25 | T 2.37 | S 2.99 | V 1.71 | R 2.44 | D 3.55 | F 1.91 | I 1.42 | N 3.03 | L 1.63 | M 1.64
R20: E 3.7 | P 2.66 | S 3.26 | V 2.54 | G 2.94 | F 2.38 | T 3.14 | C 2.6 | Q 3.29 | Y 2.06 | K 3.53 | M 2.58
T24: F 1.86 | K 3.13 | S 2.51 | C 2.57 | Y 1.91 | A 2.5 | L 2.09
L10: M 3.04 | A 3.33 | R 3.23 | V 2.97 | T 3.08 | S 3.76 | I 2.67 | W 2.23 | Q 3.25 | F 2.83 | N 3.83 | D 3.93
A17: V 2.92 | T 2.7 | D 3.84 | S 2.83 | L 1.98 | F 2.47 | C 2.54 | R 3.17 | K 2.8 | G 2.72 | Y 2.49
A12: R 3.12 | V 1.99 | L 1.98 | T 2.82 | P 3.25 | Y 2.54 | N 3.1 | D 3.21 | S 2.96 | Q 3.29 | C 2.36
G9: H 2.77 | C 2.19 | V 1.66 | M 1.93 | S 2.68 | N 3.41 | D 3.16 | P 3.2
D6: T 2.15 | Q 2.13 | H 2.06 | A 1.91 | R 2.04 | F 2.33 | N 1.96 | M 1.97 | C 2.39
L15: W 2.26 | T 3.51 | E 3.47 | S 4.01 | K 3.39 | N 3.8 | R 2.94 | G 3.74 | P 3.37 | D 3.39 | A 3.31 | Q 3.3 | M 3.09 | C 2.74 | I 2.81 | H 3.3 | F 2.41
V1: D 4.32 | C 2.88 | G 3.61 | L 2.7 | Q 4.09 | T 3.82 | F 1.88 | M 3.37 | W 2.76 | E 4.09 | H 3.45 | I 2.43 | S 3.62 | Y 2.16 | K 3.92
A22: W 1.57 | N 3.09 | Q 3.15 | T 3.03 | K 3.17 | M 2.4 | E 3.61 | F 2.19 | L 2.1 | S 2.91 | V 2.42 | R 3.13 | Y 2.23 | G 2.73
A16: F 1.99 | K 2.98 | Q 2.77 | V 2.01 | R 2.42 | T 3.11 | D 3.55 | C 2.59 | H 2.83
